Tests used:
[1] = biological target: T1, pre-RC (MCM2–7 double-hexamer on DNA) in the presence of DDK (S. cerevisiae, UniProt P29469 1-868; P24279 1-971; P30665 1-933; P29496 1-775; P53091 1-1017; P38132 …, phosphorylated by DDK, sites not printed | phosphorylated by DDK, sites not printed | phosphorylated by DDK, sites not given); assay: SEC; gel-filtration based pre-RC assay: Sld3 or Sld2 (40 nM) added alone to pre-RC with DDK (5 nM); signal corrected for Mcm2 and compared with the reaction without DDK; settings: both partners purified
T1 construct: Mcm2, subunit of MCM2–7, S. cerevisiae; Mcm3, subunit of MCM2–7, S. cerevisiae; Mcm4, subunit of MCM2–7, S. cerevisiae; Mcm5, subunit of MCM2–7, S. cerevisiae; Mcm6, subunit of MCM2–7, S. cerevisiae; Mcm7, subunit of MCM2–7, S. cerevisiae; DDK was added together with the factors, so the extent of phosphorylation at early times is not known; also called DDK-phosphorylated pre-RC; source: assembled …

[2] = biological target: T2, pre-RC (MCM2–7 double-hexamer loaded on pUC19-ARS1 DNA) (S. cerevisiae, UniProt P29469 1-868; P24279 1-971; P30665 1-933; P29496 1-775; P53091 1-1017; P38132 …); assay: SEC; gel-filtration based pre-RC assay: Sld2 and Sld3 added together to pre-RC, no DDK; 40 nM each for 1 min, titrations (Sld2 60 and 90 nM; Sld3 90 nM) and time course 0.5–30 min, over which binding of both decreased; settings: both partners purified
T2 construct: Mcm2, subunit of MCM2–7, S. cerevisiae; Mcm3, subunit of MCM2–7, S. cerevisiae; Mcm4, subunit of MCM2–7, S. cerevisiae; Mcm5, subunit of MCM2–7, S. cerevisiae; Mcm6, subunit of MCM2–7, S. cerevisiae; Mcm7, subunit of MCM2–7, S. cerevisiae; Loaded around double-stranded plasmid DNA; also called pre-replicative complex; source: assembled in solution from purified ORC, Cdc6, Cdt1 and MCM2–7 (40 nM …)

B1: Sld2 (purified) (natural protein, S. cerevisiae, UniProt P34252 1-453, looked up)
chain: MYSFELDKLKIELKTWEHDFIDKNKREPTRDDIKSLRTVRQMYKQYSTLKKKQSLQRQKVDTQESVELPAHKKDHDEVVEIGPTPQVYGKAISIFDMNLSPIKPIYMTFTNNIDVNNDNSKTISNESSPRKTILLKSSPADRTLVAEPISSVKRQLNFQMLNASSTRTPTSSPCKNRNGKLVEIKKCSPTINPPLESGKPSGYYGPNSPLKLDEENIHLNISLNSSTKRRLQIAYPSLQKTPSKDQADISTSFSPSPLIRRPLTKSLIELAREHTEIVKEFGVLQEEDIEEEEEGEEGENGYDEKNHEDDFGLEDELIRPKVVKDIFQEDDDNDDSQAREDTFIRKRPKRRKVIRRLRDNDPETETAGFERDVHKELVKLKRRKVAEFLGSTSQISDTEFEHDPEASSGVVSSEQKPTAKRKGRKKYNLVSNNFRRLKLPKKNRFSNGRWGRR
notes: Sld2, S. cerevisiae; it may or may not be the same preparation as GST-Sld2; also called purified Sld2; source: purified
fold increase of binding with DDK, against the pre-RC without DDK [1]: ~2 fold
fold reduction of binding when Sld3 is added, against Sld2 alone [2]: ~4 fold
